# Source: paper PMC314469, “Protein Interaction Networks by Proteome Peptide Scanning” (PLoS Biology, 2004)
# T1: amphyphisin SH3 (AMPH_HUMAN), P49418
# T1 chain: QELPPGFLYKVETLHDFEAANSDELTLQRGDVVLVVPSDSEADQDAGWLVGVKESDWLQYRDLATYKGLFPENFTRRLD
# Target: endophilin SH3 (SH3G2_HUMAN), Q99962
# Test: SPOT array
row,Binder,"normalised SPOT signal, Boehringer light units (BLU); mean over the file's lines of this peptide"
1,RQGPPQKPPGPAGP [P17600 586-600],325
2,RSRVPVRPPQQYSD [Q92560 382-396],831
3,RPTFLRRPINQVVL [Q9HCK4 226-239],575
4,RRQRPTRPPRQDKP [Q9Y520 1420-1434],3120
5,RRLALRRPEILVQP [Q96M62 296-309],31.7
6,AVPPPSRPQRLSSL [Q9NU00 50-63],7470
7,RQSQLQRPLRGFTW [Q9HCU0 92-105],235
8,RSQTPERPAKKIRE [Q9Y2N3 421-434],587
9,RQHLPERPRRSPLS [Q9H6G5 120-133],11100
10,RQPRPPRPPLGDRP [Q9Y5R2 356-370],4010
11,RQLRLRRPDDGSRE [Q9NR61 553-566],61.3
12,RSGNLKRPKIGKRF [Q9Y6X4 343-356],50.1
13,RRSPPRRPAWTLGI [Q9HDB5 8-21],1580
14,RPVLPQRPPEERPP [Q9BXX0 822-836],420
15,RRDPPRRPPRNGYG [Q8WW30 14-28],5040
16,RRKAPPRPPRPAAP [O60486 5-18],9570
17,RRIHIKRPDDRAHL [Q9H3F6 298-311],70.2
18,AVKSLKRPLEATFD [Q9NR56 273-286],20.3
19,RPVAPRRPRDAVGQ [O43541 61-74],1530
20,RQIPPYRPPQQGPP [Q15532 247-261],68
21,RRARPRRPREAPAP [Q96Q34 14-27],144

row,Binder,"normalised SPOT signal, Boehringer light units (BLU); mean over the file's lines of this peptide"
1,AVKVFHRPWRRGWH [O60449 754-767],38.8
2,AATQPLRPPRGTAA [P53814 641-654],1480
3,RRRSPPRPPSRPAR [Q96JH1 1030-1044],9450
4,RRQPPARPPGPSTD [Q9BQA8 78-92],9600
5,RSRSLHRPAKTSEL [O95996 1839-1852],187
6,RRGSPRRPRLSSSS [P46092 337-350],11.2
7,RRPALHRPIKVNLL [Q9NWI3 259-272],109
8,RPTVPARPPATHPR [Q8TDP0 171-185],14800
9,RRQPPVRPGRVHLP [P31152 530-543],7420
10,AVMALRRPGERQYR [Q9P0P1 47-60],206
11,RRLQPRRPGYPPRP [Q96EZ6 93-106],325
12,RSKSPRRPSPTARG [Q9BZW7 5-18],121
13,RQQTLPRPMKTLQR [O43161 2760-2773],67.7
14,RSEAPRRPSRKGLR [Q14839 1380-1393],9710
15,RSSGPERPPHGLPL [Q9NPP7 72-86],752
16,RPRRPRRPGPSDPA [Q96QG0 344-357],1340
17,RSRSPGRPPKSARR [Q14739 82-96],3690
18,RRSRLRRPAVRPTD [Q9BV18 42-55],28.4
19,RRNVPMKPPDEAKV [Q9H5Q5 226-240],147
20,RPSFLRRPVNQVVL [Q96MS0 257-270],171
21,RPSTLRRPAYRDNQ [Q9Y520 1361-1374],112

# Target: T1, amphyphisin SH3 (AMPH_HUMAN), P49418
# Test: SPOT array
row,Binder,"normalised SPOT signal, Boehringer light units (BLU); mean over the file's lines of this peptide"
1,RQGPPQKPPGPAGP [P17600 586-600],46.6
2,RSRVPVRPPQQYSD [Q92560 382-396],133
3,RPTFLRRPINQVVL [Q9HCK4 226-239],169
4,RRQRPTRPPRQDKP [Q9Y520 1420-1434],6770
5,RRLALRRPEILVQP [Q96M62 296-309],9.3
6,AVPPPSRPQRLSSL [Q9NU00 50-63],15600
7,RQSQLQRPLRGFTW [Q9HCU0 92-105],1210
8,RSQTPERPAKKIRE [Q9Y2N3 421-434],283
9,RQHLPERPRRSPLS [Q9H6G5 120-133],5990
10,RQPRPPRPPLGDRP [Q9Y5R2 356-370],1470
11,RQLRLRRPDDGSRE [Q9NR61 553-566],39.7
12,RSGNLKRPKIGKRF [Q9Y6X4 343-356],13.4
13,RRSPPRRPAWTLGI [Q9HDB5 8-21],88.8
14,RPVLPQRPPEERPP [Q9BXX0 822-836],252
15,RRDPPRRPPRNGYG [Q8WW30 14-28],8150
16,RRKAPPRPPRPAAP [O60486 5-18],1450
17,RRIHIKRPDDRAHL [Q9H3F6 298-311],20.8
18,AVKSLKRPLEATFD [Q9NR56 273-286],23.6
19,RPVAPRRPRDAVGQ [O43541 61-74],3660
20,RQIPPYRPPQQGPP [Q15532 247-261],170
21,RRARPRRPREAPAP [Q96Q34 14-27],35.2

row,Binder,"normalised SPOT signal, Boehringer light units (BLU); mean over the file's lines of this peptide"
1,AVKVFHRPWRRGWH [O60449 754-767],787
2,AATQPLRPPRGTAA [P53814 641-654],11900
3,RRRSPPRPPSRPAR [Q96JH1 1030-1044],21500
4,RRQPPARPPGPSTD [Q9BQA8 78-92],1490
5,RSRSLHRPAKTSEL [O95996 1839-1852],170
6,RRGSPRRPRLSSSS [P46092 337-350],41.2
7,RRPALHRPIKVNLL [Q9NWI3 259-272],111
8,RPTVPARPPATHPR [Q8TDP0 171-185],8140
9,RRQPPVRPGRVHLP [P31152 530-543],4120
10,AVMALRRPGERQYR [Q9P0P1 47-60],38.9
11,RRLQPRRPGYPPRP [Q96EZ6 93-106],58.2
12,RSKSPRRPSPTARG [Q9BZW7 5-18],41.9
13,RQQTLPRPMKTLQR [O43161 2760-2773],79.1
14,RSEAPRRPSRKGLR [Q14839 1380-1393],12500
15,RSSGPERPPHGLPL [Q9NPP7 72-86],39.9
16,RPRRPRRPGPSDPA [Q96QG0 344-357],594
17,RSRSPGRPPKSARR [Q14739 82-96],154
18,RRSRLRRPAVRPTD [Q9BV18 42-55],41.8
19,RRNVPMKPPDEAKV [Q9H5Q5 226-240],2290
20,RPSFLRRPVNQVVL [Q96MS0 257-270],43.9
21,RPSTLRRPAYRDNQ [Q9Y520 1361-1374],44.5
